Changes are numbered by the printed parent chain. Each block holds one binder with its values, some of them ahead of it.
Target: T1, extracellular domain of human DLL3 protein (aa27-466) having an N-terminal FLAG tag (AdipoGen, AG-40B-0151) (human, UniProt Q9NYJ7 27-466)
T1 construct: range 27-466; also called DLL3 ECD protein
T1 sequence (looked up): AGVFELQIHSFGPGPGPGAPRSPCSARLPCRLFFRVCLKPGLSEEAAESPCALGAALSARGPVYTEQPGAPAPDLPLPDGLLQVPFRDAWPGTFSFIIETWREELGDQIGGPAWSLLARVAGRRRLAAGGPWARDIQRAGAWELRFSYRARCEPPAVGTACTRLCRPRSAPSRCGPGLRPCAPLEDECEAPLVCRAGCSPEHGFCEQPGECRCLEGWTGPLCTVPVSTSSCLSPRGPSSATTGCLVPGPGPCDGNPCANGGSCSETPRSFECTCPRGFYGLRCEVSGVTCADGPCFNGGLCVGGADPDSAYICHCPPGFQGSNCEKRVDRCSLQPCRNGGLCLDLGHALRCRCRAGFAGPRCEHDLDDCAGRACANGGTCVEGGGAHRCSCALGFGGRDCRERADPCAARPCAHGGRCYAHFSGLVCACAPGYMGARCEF
Experiment: ELISA (protein), FACS (cells)

B1: AS76169 (VHH)
VHH: QVHLMESGGGSVQAGGSLRLSCAASGYIYSSFCMGWFRQAPGKEREVVAYIRDNIMTSYTDSVKGRFTISKDNAKRTLYLQMNGLKPEDTGMYYCAVDRGGYANSCAVAARYDYWGRGTQVTVSS
notes: camel sdAb; crude E. coli supernatant
- binding result: binds

B2: AS64597 (VHH)
VHH: QVHLVESGGGSVQAGGSLRLSCAASGYTYRVNFMGWFRQTPGKEREGVATIDSGVGTTYYADSVKGRFTISHNNAKNTIYLQMNSLKPEDTAMYYCAAGGPPTDGDRWYPLRPPGYNYWGQGTQVTVSS
notes: as for B1
- binding result: binds

B3: AS64130 (VHH)
VHH: EVQLAESGGGSVQAGGSLRLSCAASGYTYRSNFMGWFRQAPAKEREGVATIDSRGTITYYADSVKGRFTISQDNEKNTVYLQMNSLKPEDTAMYYCAAGGPRTNDDRWYPLRPPGYNYWGQGTQVTVSS
notes: as for B1
- binding result: binds

B4: AS68320 (VHH)
VHH: QVHLVESGGDSVQAGGSLRLSCAASGYTYNTNYMGWFRQAPGKEREGVAAIYRHSGNTAYADSVKGRFTISQDYAKNTVYLQMNSLKPEDTAMYYCAAGRAGPWALMRPTEFGYWGQGTQVTVSS
notes: as for B1
- binding result: binds

B5: AS64228 (VHH)
VHH: QVQLKESGGGSIQAGGSLRLSCAASGVSYNRCSMGWYRQAPGKGRELVSRIQPGGNTYYADSVKGRFTVSQDNAKNTVSLQMNSLKPEDTAMYYCNALCWRENVNYWGQGTQVTVSS
notes: as for B1
- binding result: binds

B6: AS69527 (VHH)
VHH: EVQLAESGGGSVQAGGSLRLSCVASRYTFSSTCMAWFRQAPGKEREEVAAIYTDDGSTWYADSVKGRFTISRDNAKNTVYLQMNSLKPEDTAMYYCAARRWACPRVGSWHEFAYWGQGTQVTVSS
notes: as for B1
- binding result: binds

B7: AS68351 (VHH)
VHH: QVQLEESGGGLVQPGGSLRLSCAASGDTFRAYYMNWVRQAPGKGFEWVSGISASGGRTSYADSVKGRFTISRDNAKNTLYLQLNSLSTEDTGMYYCVKGAVRLSTSSVRDSSWGQGTQVTVSS
notes: as for B1
- binding result: binds

B8: AS63932 (VHH)
VHH: QVQLEESGGGSVQAGGSLRLSCVASGYTYGSTFMGWFRQNPGKEREGVAVIYTGGGSTWYASSVKGRFTISQDNAKNTVYLQMNSLKPEDTAMYYCAARYGSGNVNYWGQGTQVTVSS
notes: as for B1
- binding result: binds

B9: AS64443 (VHH)
VHH: QVHLVESGGGSVQAGGSLRLSCAASGYTDSSVYIGWFRQAPGKEREEVAIIYTGGESTHYRSSVKGRFTVSQDNAKNTLYLQMNSLKPEDTAMYYCAARFPAVTYWGQGTQVTVSS
notes: as for B1
- binding result: binds

B10: AS68355 (VHH)
VHH: QMQLVESGGDSVQAGGSLRLSCAASGYTYSGVCMGWFRQAPGKEREGVAAIDSDGSTSYADSVKGRFTISKDNAKNTLYLQMNSLKPEDTAMYYCAAAIVGGFNAYCSGGYVLDFGAWGQGTQVTVSS
notes: as for B1
- binding result: binds

B11: AS64123 (VHH)
VHH: QVQLAESGGGSVQAGGSLRLSCAASGYTYTSNWLGWFRQAPGKEREEVAIIYTGSGSTHYRSSVKGRFTISQDNAKNTVYLQMNSLKPEDTAMYYCAARFSEYNYWGQGTQVTVSS
notes: as for B1
- binding result: binds

B12: AS63999 (VHH)
VHH: B11 VHH with Q1E, A5V, T30S, L34M, S55G, G56I, F100Y, S101T, E102D
notes: as for B1
- binding result: binds

B13: AS75751 (VHH)
VHH: QVRLVESGGGSVQAGGSLRLSCVASGYFYNTYYFMGWFRQAPGKEREGVAAIDTDGRTSYADSVKGRFTISKDNAKNTLYLQMNSLKPEDTAMYYCAAGFGYMNVIQALNGMRQNPDYWGQGTQVTVSS
notes: as for B1
- binding result: binds

B14: AS64114 (VHH)
VHH: QVQLQESGGGSVQAGGSLTLSCEASGNTYSTNYMGWFRQAPGKEREEVAVIYTRGGHTYYVDSVRGRFTISQDNAKNTVYLQMNSLKPEDTAMYYCAAASRHRLRLNNPRDYDYWGQGTQVTVSS
notes: as for B1
- binding result: binds

B15: AS76422 (VHH)
VHH: QVKLVESGGGSVQAGGSLRLSCAASGYTFAGNCLGWFRQAPGKGREGVVTYNNFGVANYADSVKGRFTVSQDNAKNTLLLQMNSLEPEDTAMYYCAADRRDGRRWSQPCEWNTWGQGTQVTVSS
notes: as for B1
- binding result: binds

B16: AS64300 (VHH)
VHH: QVHLVESGGGSVQTGGSLRLSCAVSGDIYNLMSMAWFRRAPGKEREGVAYINTIIGNTYYTDSVKGRFTISRDNSKNTLYLQMNNLKPEDTAMYYCAAFNYGGAWYEERSYKYWGQGTQVTVSS
notes: as for B1
- binding result: binds

B17: AS64395 (VHH)
VHH: QVRLVESGGGSVQAGGSLRLSCAASGSTYSTNFMGWFRQAPGKEREGVATLVTWAERTAYADSVKGRFTISQDRAKNTVYLQMNGLKPEDTAMYYCAAAASTAVRLLDPGDFAYWGQGTQVTVSS
notes: as for B1
- binding result: binds

B29: AS64142 (VHH)
VHH: QVHLMESGGGLVQTGGSLRLSCTASGFTFDRNAMRWYRQAPGKEREGVSCIDWTGANIAYADSVKGRFTISRDNAKNTLYLQMNSLKPEDTGMYYCAADTTSGYCSGFWSTSRYSWGQGTQVTVSS
notes: as for B1
- binding result: binds

Now from value to binder:

- binding result: binds
B18: AS64137 (VHH)
VHH: QVRLVESGGGSVQAGGSLRLSCAASGSTYSTNFMGWFRQAPGKEREGVATLVTWVERTAYADSVKGRFTISQDRAKNTVYLQMNSLKPEDTAMYYCAAAAASTDVRLLDPGDFAYWGQGTQVTVSS
notes: as for B1

- binding result: binds
B19: AS69500 (VHH)
VHH: QVRLVESGGGSVQAGGSLRLSCAADRYTYSSACMGWFRQAPGKEREGVASIFTGTGGSTYYADSVKGRFTISQDNAKNTVYLQMNSLKPEDTAIYYCAARAFQVGYCYLRTDVYNYWGQGTQVTVSS
notes: as for B1

- binding result: binds
B20: AS75387 (VHH)
VHH: QVHLVESGGGSVQAGGSLRLSCAASGYPYSSPCMAWFRQAPGKEREGVLVAYTGGDIQYLTDSVKGRFTISRDNAKNTVYLQMNSLKPEDTAMYYCAADLRLPRAGGCAYSYWGQGTQVTVSS
notes: as for B1

- binding result: binds
B21: AS64072 (VHH)
VHH: QVQLVESGGGSVQAGGFLRLSCALSGYSYYINLMAWFRQAPGKEREAVAAHGPVSGTAYYTDSVKGRFTISRDPGKNTMYLQMFSLQPEDTALYYCAAETTMGWAHERGYRYWGQGTQVTVSS
notes: as for B1

- binding result: binds
B22: AS68280 (VHH)
VHH: QVQLVESGGGSVHPGGSLRLSCAASGSTYSSNYLGWFRQAPGKGRDWVAAISTGDGATAYADSVKGRFTISQDNAKNTVYLQMNSLKLEDSAMYYCAAARGRFIDWTKATQYDYWGQGTQVTVSS
notes: as for B1

- binding result: binds
B23: AS75695 (VHH)
VHH: QVRLVESGGGSVQAGGSLRLSCVASGYTVSAYCMGWFRQVLGKGRERIAFIDAGGATIYADPVKGRFTISKDNAKNTLYLQMNSLKPEDTAMYYCVADRRGRVRRCEYNAWGQGTQVTVSS
notes: as for B1

- binding result: binds
B24: AS75376 (VHH)
VHH: QVQLKESGGGSVQAGGSLRLSCAASGYTYSSHSMGWFRQAPGKEREGVAVIYTGDGSTYYADSVKGRFTISQDNAKNTVYLQMNSLKPEDTAMYYCAADPNPDYMLPFRPSRRSWWGQGTQVTVSS
notes: as for B1

- binding result: binds
B25: AS75378 (VHH)
VHH: QVQLEESGGGSVQAGGSLRLSCVVSGNTRSTTYMGWFRQAPGKEREGVAIVYTGGRDTYYAASVKGRFTISQDNAKTTIYLQMNSLEPEDTAMYYCAARSYEYTYWGRGTQVTVSS
notes: as for B1

- binding result: binds
B26: AS64634 (VHH)
VHH: QVRLVESGGGSVQAGGSLRLSCAASGYSFRGDFMCMGWFRQTPGKGREGVAVFYPGGGSTNYADSAKGRFTISQDNAKNTMYLQMNTLKPEDTAMYYCAARRWVSGTCYWDSDFHYWGQGTQVTVSS
notes: as for B1

- binding result: binds
B27: AS75383 (VHH)
VHH: EVQLAESGGGSVQAGGSLRLSCVASGYTFSSYCLGWFRQAPGKQRQGVATFNNRGVANYHDSVKGRFTASVDNAKNTLLLQMNSLEPDDTAMYYCAADRRYGRQWYQPCEWNTWGQGTQVTVSS
notes: as for B1

- binding result: binds
B28: AS64160 (VHH)
VHH: EVQLVESGGGSVQAGGSLRLSCAASVYTSSSYCMGWFRQAPGKEREGVAAMCFGGLVTHYADSVKGRFTISQDNAKNTVYLQMNSLKPEDTAMYYCAADFGRDKNYLRPLLPHAYNYWGQGTQVTVSS
notes: as for B1

- binding result: binds
B30: AS64057 (VHH)
VHH: B29 VHH with H3Q, M5E, D52S, Y104S, S115Y
notes: as for B1

- binding result: binds
B31: AS64097 (VHH)
VHH: QVHLMESGGGSVQAGGSLRLSCEASGYTYSRNCMGWFRQAPGKEREGVAAINTGGGSTYYADSLEGRFTISQDNAKNTMYLQMNSLKPEDTAMYYCAAGPDLGGSWCRPVERAFTYWGQGTQVTVSS
notes: as for B1
